This data set addresses T1, CasEnd-29 (synthetic construct).
T1 chain: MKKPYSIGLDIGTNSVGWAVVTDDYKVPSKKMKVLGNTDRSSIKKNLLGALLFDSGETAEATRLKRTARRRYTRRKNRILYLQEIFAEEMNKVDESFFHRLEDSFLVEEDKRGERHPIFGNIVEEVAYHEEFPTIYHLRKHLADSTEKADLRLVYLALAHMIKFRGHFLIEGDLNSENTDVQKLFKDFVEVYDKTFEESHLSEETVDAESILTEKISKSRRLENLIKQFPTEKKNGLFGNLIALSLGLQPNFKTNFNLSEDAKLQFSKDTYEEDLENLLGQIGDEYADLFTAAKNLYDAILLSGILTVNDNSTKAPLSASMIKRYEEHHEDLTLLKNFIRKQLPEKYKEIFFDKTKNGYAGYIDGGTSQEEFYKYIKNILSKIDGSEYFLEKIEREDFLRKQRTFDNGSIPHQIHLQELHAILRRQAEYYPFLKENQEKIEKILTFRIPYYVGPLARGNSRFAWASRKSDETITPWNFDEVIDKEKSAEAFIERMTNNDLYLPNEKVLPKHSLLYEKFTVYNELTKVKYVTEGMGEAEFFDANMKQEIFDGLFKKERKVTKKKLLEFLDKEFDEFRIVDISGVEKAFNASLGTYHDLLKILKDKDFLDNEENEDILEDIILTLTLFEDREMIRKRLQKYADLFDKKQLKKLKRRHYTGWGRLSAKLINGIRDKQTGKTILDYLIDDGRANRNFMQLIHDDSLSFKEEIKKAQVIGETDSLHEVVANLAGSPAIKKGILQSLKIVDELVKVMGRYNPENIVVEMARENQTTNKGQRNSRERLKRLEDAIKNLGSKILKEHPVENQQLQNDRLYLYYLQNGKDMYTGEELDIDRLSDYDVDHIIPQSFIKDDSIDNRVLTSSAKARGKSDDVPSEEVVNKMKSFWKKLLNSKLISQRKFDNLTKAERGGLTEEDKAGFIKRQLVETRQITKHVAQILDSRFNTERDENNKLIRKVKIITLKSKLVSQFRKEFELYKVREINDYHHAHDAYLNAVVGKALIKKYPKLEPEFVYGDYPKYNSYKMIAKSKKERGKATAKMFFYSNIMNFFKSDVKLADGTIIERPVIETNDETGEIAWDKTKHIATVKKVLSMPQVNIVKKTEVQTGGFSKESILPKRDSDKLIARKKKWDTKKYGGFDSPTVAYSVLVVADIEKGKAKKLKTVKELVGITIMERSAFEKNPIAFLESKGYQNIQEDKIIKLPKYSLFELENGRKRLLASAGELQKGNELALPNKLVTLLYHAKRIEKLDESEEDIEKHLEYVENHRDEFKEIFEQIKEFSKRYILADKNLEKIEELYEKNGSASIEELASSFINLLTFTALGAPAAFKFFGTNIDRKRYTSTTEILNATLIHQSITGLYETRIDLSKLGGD
Description: cell_activity; +++; HEK293T; PAM not stated. In outline:
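Editing activity was scored as the fraction of GFP+ cells on day 4 by flow cytometry. BFP-expressing HEK293T cells (250,000) received by nucleofection 200 ng plasmid for the RT-Cas fusion protein and 200 ng template RNA plasmid designed to convert BFP to GFP.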

Consider one molecule from US20250092426, “CAS ENDONUCLEASES AND RELATED METHODS” (Flagship Pioneering Innovations VII, LLC, published 2025).

B1: BFP-to-GFP template RNA ; BFP reporter protospacer (ssRNA ; dsDNA)
RNA: GCCGAAGCACUGCACGCCGUGUUUUAGAGCUAGAAAUAGCAAGUUAAAAUAAGGCUAGUCCGUUAUCAACUUGAAAAAGUGGCACCGAGUCGGUGCACCCUGACGUACGGCGUGCAGUGCUU
DNA 1: GCCGAAGCACTGCACGCCGT
DNA 2: ACGGCGTGCAGTGCTTCGGC
Regarding B1, the activity is ≥ 100 % of reference.
